Assay results published in publication PMC6862768 (Nature, 2019).

Target: the molecule itself
Assay: cryo-EM structure

B1: full-length chicken STING, cGAMP-bound (natural protein, UniProt E1C7U0 1-379, looked up)
chain: MPQDPSTRSSPARLLIPEPRAGRARHAACVLLAVCFVVLFLSGEPLAPIIRSVCTQLAALQLGVLLKGCCCLAEEIFHLHSRHHGSLWQVLCSCFPPRWYLALLLVGGSAYLDPPEDNGHSPRLALTLSCLCQLLVLALGLQKLSAVEVSELTESSKKNVAHGLAWSYYIGYLKVVLPRLKECMEELSRTNPMLRAHRDTWKLHILVPLGCDIWDDLEKADSNIQYLADLPETILTRAGIKRRVYKHSLYVIRDKDNKLRPCVLEFASPLQTLCAMSQDDCAAFSREQRLEQARLFYRSLRDILGSSKECAGLYRLIAYEEPAEPESHFLSGLILWHLQQQQREEYMVQEELPLGTSSVELSLQVSSSDLPQPLRSDCP
With B1 the “stoichiometry N” value was 2.
